Experimental data as given in US20240034792A1 (HARBOUR BIOMED SHANGHAI, published 2024).
Where two headings read alike, the source gives them in different places.

Assays:
[1] = target: T1, Human PD-1 expressed on CHO-K1 cells (CHO-K1/hPD-1) (human, UniProt Q15116 25-288); assay: FACS, CHO-K1/hPD-1 cells
T1 construct: whole, on cells; also called CHO-K1 cells overexpressing human PD-1
Procedure: (§1) In order to investigate the in vitro binding activity of the PD-1 antigen-binding proteins to human/cynomolgus monkey PD-1, the binding assay at the cellular level was performed using a CHO-K1 cell strain overexpressing human or cynomolgus monkey PD-1 (CHO-K1/hPD-1 or CHO-K1/cyno PD-1, from GenScript). Briefly, the CHO-K1-hPD-1 cells were digested and resuspended in an F-12K complete medium, and the cell density was adjusted to 1×10⁶ cells/mL. The cells were seeded in a 96-well V-bottom plate (Corning, Cat#3894) at 100 μL/well, followed by the addition of the test antigen-binding proteins with concentrations 2-fold of final concentrations obtained by 5-fold gradient dilution were each added at 100 μL/well. The mixtures were well mixed. The maximum final concentration of the antigen-binding proteins was 100 nM or 300 nM. A total of 8-11 concentrations were set. hIgG was used as a control. The cells were incubated at 4° C. for 1 h away from light. Thereafter, the cells in each well were rinsed twice with 100 μL of pre-cooled PBS, and centrifuged at 500 g at 4° C. for 5 min, and then the supernatant was discarded. Then 100 μL of a fluorescent secondary antibody (goat anti-human IgG (H+L) secondary antibody, Alexa Fluor® 488 conjugate, Invitrogen, Cat #A11013, 1:1000) was added to each well. The plate was incubated away from light at 4° C. for 30 min. The cells in each well were rinsed twice with 200 μL of pre-cooled PBS, and centrifuged at 500 g at 4° C. for 5 min, and then the supernatant was discarded. Finally, the cells in each well were resuspended in 200 μL of pre-cooled PBS, and the fluorescence signal values were read using a BD FACS CANTOII.

[2] = target: T1, Human PD-1 expressed on CHO-K1 cells …; assay: FACS, CHO-K1/hPD-1 cells; remark: listed apart in the source
Procedure: as §1

[3] = target: T2, Human PD-1 protein with histidine and avi tags (ACRO Biosystems, PD1-H82E4) (human, UniProt Q15116 25-167); assay: BLI (Octet Red96e), PD-1 captured on SA sensor, 1:1 local fit
T2 construct: Captured on streptavidin (SA) sensors in the BLI assay; not shown: histidine and avi tags
T2 sequence (Q15116 25-167 limits assumed): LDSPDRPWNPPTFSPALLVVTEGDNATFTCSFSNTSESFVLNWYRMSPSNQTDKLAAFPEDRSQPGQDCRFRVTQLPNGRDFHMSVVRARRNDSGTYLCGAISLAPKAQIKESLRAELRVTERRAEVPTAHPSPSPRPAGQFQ
Procedure: (§2) Human PD-1 proteins with histidine and avi tags were purchased from the manufacturer ACRO Biosystems (Cat#: PD1-H82E4), and the assay buffer was 1× kinetics buffer (diluted from 10× kinetics buffer (ForteBio, Cat#: 18-1105)) for kinetic assay and dilution of antigens and antibodies. The binding kinetics between the antigen and the antibody was analyzed by the biolayer interferometry (BLI) technique using an Octet molecular interaction analyzer (ForteBio, model: Octet Red96e).
(§3) When the binding kinetics between the antigen and the antibody was determined, the rotation speed of the sensor was set at 1000 rpm/min. The eight SA sensors placed in a column were first equilibrated in an assay buffer for 10 min and then used to capture PD-1 at a capture height of 0.5 nm. Thereafter, the SA sensors were equilibrated in the assay buffer for 100 s, and then were associated with each antibody diluted to a single concentration and with a row of blank buffer wells for 180 s, followed by dissociation for 600 s. A new column of SA sensors were used in each cycle.
(§4) When data analysis was performed using Octet Data Analysis software (Fortebio, version 11.0), the reference signals were subtracted by a single reference mode (reference well), the data were fitted by a “1:1 Local fitting” method, and the kinetic parameters of the binding of the antigen to the antibody were calculated to obtain kon (1/Ms) values, kdis (1/s) values and KD (M) values.

[4] = target: T2, Human PD-1 protein with histidine and …; assay: BLI; ratio of kdis, apparently PR005090 over the variant
Procedure: as §2, §3, §4

[5] = target: T1, Human PD-1 expressed on CHO-K1 cells …; assay: FACS blocking of biotin-labeled human PD-L1 binding to CHO-K1-hPD-1 cells
Procedure: Briefly, the CHO-K1-hPD-1 cells were digested and resuspended in an F-12K complete medium, and the cell density was adjusted to 1×10⁶ cells/mL. The cells were seeded in a 96-well V-bottom plate (Corning, Cat#3894) at 100 μL/well, followed by the addition of the test antigen-binding proteins with concentrations 2-fold of final concentrations obtained by 3-fold or 5-fold gradient dilution were each added at 100 μL/well. The mixtures were well mixed. The maximum final concentration of the antigen-binding proteins was 100 nM or 300 nM. A total of 8 concentrations were set. hIgG was used as a control. The cells were incubated at 4° C. for 1 h away from light. […] The cells were incubated at 4° C. away from light for 30 min. The cells in each well were rinsed twice with 100 μL of pre-cooled PBS, and centrifuged at 500 g at 4° C. for 5 min, and then the supernatant was discarded. A fluorescent secondary antibody (PE Streptavidin, BD, Cat# 554061, 1:200) was added at 100 μL/well, and the cells were incubated at 4° C. away from light for 30 min. The cells in each well were rinsed twice with 200 μL of pre-cooled PBS, and centrifuged at 500 g at 4° C. for 5 min, and then the supernatant was discarded. Finally, the cells in each well were resuspended in 200 μL of pre-cooled PBS, the fluorescence signal values were read using a BD FACS CANTOII, and the IC₅₀ values were calculated.

T1 sequence (Q15116 25-288): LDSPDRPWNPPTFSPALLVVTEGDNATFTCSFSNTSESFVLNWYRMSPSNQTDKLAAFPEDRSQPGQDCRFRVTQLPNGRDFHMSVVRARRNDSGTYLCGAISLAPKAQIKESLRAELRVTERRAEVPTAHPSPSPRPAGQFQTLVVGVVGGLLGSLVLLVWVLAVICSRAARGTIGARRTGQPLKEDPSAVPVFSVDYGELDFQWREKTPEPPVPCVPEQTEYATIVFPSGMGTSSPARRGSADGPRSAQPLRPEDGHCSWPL

Row | Binder | EC50 [1] [nM] | MFI Maximum [1] | EC50 [2] [nM] | MFI Maximum [2] | Kd [3] [nM] | koff [3] [s⁻¹] | kon [3] [M⁻¹ s⁻¹] | kdis ratio [4] | IC50 [5] [nM] | Maximum inhibition rate (%) [5] [%]
1 | PR005090 (VHH, Monovalent single-domain (VH) antibody with Flag-6His tag) VHH: EVQLVETGGGLIQPGGSLRLSCAASGFNVSSHYMSWVRQAPGKGREWVSIIDGGGSTYYADSVKGRFTISRDNSKNRLYLQMNSLRAEDTAMYYCARATAVAEKNGYNYPFNYWGQGTLVTVSS | 48.9 | 4150 | 48.9 | 4150 | 20.8 | 0.00114 | 55000 |  |  | 
2 | PR005142 (VHH, Monovalent single-domain (VH) variant of PR002481 with Flag-6His tag) VHH: EVQLVETGGGLIQPGGSLRLSCAASGFNVSFYYMSWVRQAPGKGREWVSIIDKGGSGYYAASVKGRFTISRDNSKNRLYLQMNSLRAEDTAMYYCARATEVREKNGYNYPFNYWGQGTLVTVSS |  |  | 70.9 | 12400 | 6.76 | 5.55e-05 | 8200 | 20.6 |  | 
3 | PR005147 (VHH, Monovalent single-domain (VH) variant of PR002481 with Flag-6His tag) VHH: EVQLVETGGGLIQPGGSLRLSCAASGFNVSYYYMSWVRQAPGKGREWVSIIDKAGSTYYGASVKGRFTISRDNSKNRLYLQMNSLRAEDTAMYYCARATMVREKNGYNYPFNYWGQGTLVTVSS |  |  | 382 | 18000 | 16.5 | 2.74e-05 | 1660 | 41.7 |  | 
4 | PR005146 (VHH, Monovalent single-domain (VH) variant of PR002481 with Flag-6His tag) VHH: EVQLVETGGGLIQPGGSLRLSCAASGFNVSFHYMSWVRQAPGKGREWVSIIDGAGSGYYAASVKGRFTISRDNSKNRLYLQMNSLRAEDTAMYYCARATMVREKQGYNYPFNYWGQGTLVTVSS |  |  |  |  | 1020 | 0.000605 | 593 | 1.89 |  | 
5 | PR005093 (VHH, Monovalent single-domain (VH) variant of PR002481 with Flag-6His tag) VHH: EVQLVETGGGLIQPGGSLRLSCAASGFNVSSHYMSWVRQAPGKGREWVSIIDGGGSTYYADSVKGRFTISRDNSKNRLYLQMNSLRAEDTAMYYCARATRVREANGYNYPFNYWGQGTLVTVSS | 10.5 | 4530 |  |  | 4.82 | 0.000636 | 132000 | 1.8 |  | 
6 | PR002477 (antibody, human IgG1, V domains shown, Heavy-chain-only antibody (HCAb), human IgG1 Fc; two heavy chains, no light chain; also called R4004P547H9) VH: EVQLVETGGGLIQPGGSLRLSCAASGFNVSSHYMSWVRQAPGKGLEWVSIIHSGGSTYYADSVKGRFTISRDNSKNRLYLQMNSLRAEDTAVYYCARAIAVAEKNGYNYPFNYWGQGTLVTVSS |  |  | 29.3 | 955000 |  |  |  |  | 7.7 | 67.5
7 | PR005141 (VHH, Monovalent single-domain (VH) variant of PR002481 with Flag-6His tag) VHH: EVQLVETGGGLIQPGGSLRLSCAASGFNVSYFYMSWVRQAPGKGREWVSIIDKGGSGYYAASVKGRFTISRDNSKNRLYLQMNSLRAEDTAMYYCARATEVREKNGYNYPFNYWGQGTLVTVSS |  |  | 110 | 13300 | 1.49 | 7.75e-05 | 52100 | 14.7 |  | 

More lines, in order of falling EC50 [2], values ahead:

Row | EC50 [1] [nM] | MFI Maximum [1] | EC50 [2] [nM] | MFI Maximum [2] | Kd [3] [nM] | koff [3] [s⁻¹] | kon [3] [M⁻¹ s⁻¹] | kdis ratio [4] | IC50 [5] [nM] | Maximum inhibition rate (%) [5] [%] | Binder
8 |  |  | 27.6 | 11700 | 1.21 | 5.72e-05 | 47200 | 20 |  |  | PR005148 (VHH, Monovalent single-domain (VH) variant of PR002481 with Flag-6His tag) VHH: EVQLVETGGGLIQPGGSLRLSCAASGFNVSSHYMSWVRQAPGKGREWVSIIDKAGSGYYAASVKGRFTISRDNSKNRLYLQMNSLRAEDTAMYYCARATEVREKNGYNYPFNYWGQGTLVTVSS
9 |  |  | 25.6 | 1.04e+06 |  |  |  |  | 4.79 | 62.2 | PR002473 (antibody, human IgG1, V domains shown, Heavy-chain-only antibody (HCAb), human IgG1 Fc; two heavy chains, no light chain; also called R4004P541H11) VH: EVQLVETGGGLIQPGGSLRLSCAASGFNVSSHYMSWVRQAPGKGLEWVSIIHSGGSTYYADSVKGRFTISRDNSKNRLYLQMNSLIAEDTAVYYCARAIAVAEKNGYNYPFNYWGQGTLVTVSS
10 |  |  | 22.9 | 11600 | 4.51 | 4.52e-05 | 10000 | 25.2 |  |  | PR005144 (VHH, Monovalent single-domain (VH) variant of PR002481 with Flag-6His tag) VHH: EVQLVETGGGLIQPGGSLRLSCAASGFNVSFYYMSWVRQAPGKGREWVSIIDKSGSTYYAASVKGRFTISRDNSKNRLYLQMNSLRAEDTAMYYCARATEVREKNGYNYPFNYWGQGTLVTVSS
11 |  |  | 22.4 | 10400 | < 0.001 | < 1e-07 | 59000 |  |  |  | PR005150 (VHH, Monovalent single-domain (VH) variant of PR002481 with Flag-6His tag) VHH: EVQLVETGGGLIQPGGSLRLSCAASGFNVSSFYMSWVRQAPGKGREWVSIIDKAGSTYYGASVKGRFTISRDNSKNRLYLQMNSLRAEDTAMYYCARATEVREKQGYNYPFNYWGQGTLVTVSS
12 |  |  | 20.6 | 953000 |  |  |  |  | 54.5 | 97 | PR002478 (antibody, human IgG1, V domains shown, Heavy-chain-only antibody (HCAb), human IgG1 Fc; two heavy chains, no light chain; also called R4004P548A8) VH: EVQLVETGGGLIQPGGSLRLSCAASGFNVSSNYMSWVRQAPGKGLEWVSIIHSGGSTYYADSVKGRFTISRDNSKNRLYLQMNSLRAEDTAVYYCARAIAVAEKNGYNYPFNYWGQGTLVTVSS
13 |  |  | 18.5 | 959000 |  |  |  |  | 37.5 | 92.1 | PR002475 (antibody, human IgG1, V domains shown, Heavy-chain-only antibody (HCAb), human IgG1 Fc; two heavy chains, no light chain; also called R4004P547D9) VH: EVQLVETGGGLIQPGGSLRLSCAASGFNVSSNYMSWVRQAPGKGLEWVSIIHSGGSTYYADSVKGRFTISRDNSKNTLYLQMNSLRAEDTAVYYCARAIAVAEKNGYNYPFNYWGQGTLVTVSS
14 |  |  | 18 | 10500 | 5.31 | 5.24e-05 | 9860 | 21.8 |  |  | PR005145 (VHH, Monovalent single-domain (VH) variant of PR002481 with Flag-6His tag) VHH: EVQLVETGGGLIQPGGSLRLSCAASGFNVSFYYMSWVRQAPGKGREWVSIIDKGGSTYYGDSVKGRFTISRDNSKNRLYLQMNSLRAEDTAMYYCARATEVREKNGYNYPFNYWGQGTLVTVSS
15 |  |  | 10.9 | 11100 | 14 | 4.83e-05 | 3450 | 23.7 |  |  | PR005149 (VHH, Monovalent single-domain (VH) variant of PR002481 with Flag-6His tag) VHH: EVQLVETGGGLIQPGGSLRLSCAASGFNVSSHYMSWVRQAPGKGREWVSIIDKAGSGYYADSVKGRFTISRDNSKNRLYLQMNSLRAEDTAMYYCARATEVREKQGYNYPFNYWGQGTLVTVSS
